Data reported in the supplement of paper PMC7877785.
± gives the uncertainty stated by the source.

Assay: self-splicing fitness, log relative to wild type (ln ratio); higher = more splicing; Tetrahymena group I intron in knt gene, E. coli kanamycin selection, DiMSum; sequences stand for … in CUCUCU…GGAGGGAAAAGUUAUCAGGCAUGCACCUGGUAGCUAGUCUUUAAACCAAUAGAUUGCAUCGGUUUAAAAGGCAAGACCGUCAAAUUGCGGGAAAGGGGUCAACAGCCGUUCAGUACCAAGUCUCAGGGGAAACUUUGAGAUGGCCUUGCAAAGGGUAUGGUAAUAAGCUGACGGACAUGGUCCUAACCACGCAGCCAAGUCCUAAGUCAACAGAUCUUCUGUUGAUAUGGAUGCAGUUCACAGACUAAAUGUCGGUCGGGGAAGAUGUAUUCUUCUCAUAAGAUAUAGUCGGACCUCUCCUUAAUGGGAGCUAGCGGAUGAAGUGAUGCAACACUGGAGCCGCUGGGAACUAAUUUGUAUGCGAAAGUAUAUUGAUUAGUUUUGGAGUACUCGUGGUCG
Method in brief: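 DiMSum derived fitness as the error-weighted combination of fold changes across replicates, kanamycin versus no kanamycin, normalised to wild type. E. coli BL21(DE3) held the library, which randomised all eight P1ex-region intron nucleotides within the knt kanamycin-resistance gene on pET-22b(+). Six replicate transformations grew overnight at 37°C or 30°C on LB agar with or without 25 μg/mL kanamycin, also containing 100 μg/mL carbenicillin, 50 μM IPTG and 0.2% rhamnose, and pooled colonies were amplicon-sequenced on an Illumina HiSeq 2500.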

Row | Sequence | self-splicing fitness (ln) (30 °C) | self-splicing fitness (ln) (37 °C)
1 | UCACAGCAAUAUUACGGUGA | -3.99 ± 0.33 | -2.77 ± 0.21
2 | UGACAGCAAUAUUACGACCA | -0.143 ± 0.1 | 0.216 ± 0.15
3 | UACGAGCAAUAUUACGUCUC | -3.24 ± 0.29 | -2.56 ± 0.4
4 | GUUCAGCAAUAUUACGGUCA | -1.42 ± 0.12 | -0.536 ± 0.086
5 | CCUAAGCAAUAUUACGAUAU | -3.87 ± 0.32 | -2.6 ± 0.21
6 | GGGGAGCAAUAUUACGUAGA | -2.43 ± 0.31 | -1.7 ± 0.4
7 | GUCAAGCAAUAUUACGCGAG | -1.83 ± 0.11 | -1.36 ± 0.12
8 | AGAAAGCAAUAUUACGUAAU | -1.6 ± 0.087 | -1.27 ± 0.12
9 | CAACAGCAAUAUUACGUCGG | -0.576 ± 0.052 | -0.369 ± 0.065
10 | GACUAGCAAUAUUACGCCUA | -0.114 ± 0.18 | -0.547 ± 0.15
11 | UCAGAGCAAUAUUACGGCUU | -3.38 ± 0.34 | -2.19 ± 0.35
12 | CGGUAGCAAUAUUACGAUUG | -0.538 ± 0.073 | -0.0537 ± 0.095
13 | ACAAAGCAAUAUUACGCGAG | -1.33 ± 0.06 | -0.621 ± 0.072
14 | UACUAGCAAUAUUACGAGAG | -2.94 ± 0.13 | -2.43 ± 0.18
15 | CGCCAGCAAUAUUACGACAC | -2.92 ± 0.25 | -1.65 ± 0.26
16 | AACAAGCAAUAUUACGAAGU | -2.46 ± 0.085 | -1.29 ± 0.099
17 | UCUAAGCAAUAUUACGUGGC | -3.09 ± 0.19 | -3.11 ± 0.34
18 | GAAAAGCAAUAUUACGCGUA | -1.27 ± 0.11 | -1.15 ± 0.11
19 | ACUAAGCAAUAUUACGACUC | -0.352 ± 0.12 | 0.402 ± 0.14
20 | AUAUAGCAAUAUUACGGCGC | -1.38 ± 0.19 | -0.869 ± 0.26
21 | GUACAGCAAUAUUACGUAAG | -1.08 ± 0.096 | -0.465 ± 0.11
22 | CGCGAGCAAUAUUACGCAAU | -4.68 ± 0.36 | -2.83 ± 0.29
23 | CGACAGCAAUAUUACGUCCC | -0.895 ± 0.47 | –
24 | CUACAGCAAUAUUACGCACU | -3.52 ± 0.21 | -3.03 ± 0.4
25 | CCAUAGCAAUAUUACGAGGC | -3.03 ± 0.15 | -3.27 ± 0.21

Row | Sequence | self-splicing fitness (ln) (30 °C) | self-splicing fitness (ln) (37 °C)
26 | CUUGAGCAAUAUUACGCCGC | -1.08 ± 0.47 | –
27 | CCGUAGCAAUAUUACGUACC | -4.4 ± 0.29 | -1.72 ± 0.34
28 | AAGUAGCAAUAUUACGGAAG | -2.96 ± 0.19 | -2.44 ± 0.37
29 | GACUAGCAAUAUUACGCGAA | -1.83 ± 0.18 | -0.638 ± 0.17
30 | GCCUAGCAAUAUUACGUCGC | -1.46 ± 0.17 | -1.01 ± 0.16
31 | GCAAAGCAAUAUUACGCUGA | -2.59 ± 0.12 | -2.04 ± 0.11
32 | ACCAAGCAAUAUUACGCAUC | -3.18 ± 0.11 | -1.74 ± 0.11
33 | UAAGAGCAAUAUUACGAGCU | -2.93 ± 0.3 | -2.6 ± 0.44
34 | UACCAGCAAUAUUACGUAUU | -2.16 ± 0.1 | -2.6 ± 0.18
35 | CAGAAGCAAUAUUACGUAUG | -4.42 ± 0.16 | -2.56 ± 0.13
36 | CUCGAGCAAUAUUACGCGAA | -3.3 ± 0.34 | -2.41 ± 0.37
37 | CGGGAGCAAUAUUACGCUUG | – | -2.34 ± 0.31
38 | UAGGAGCAAUAUUACGAAUG | -1.64 ± 0.4 | -0.141 ± 0.49
39 | GAAAAGCAAUAUUACGUAGG | -3.87 ± 0.14 | -1.96 ± 0.11
40 | UGAUAGCAAUAUUACGUUUG | -1.26 ± 0.073 | 0.0201 ± 0.099
41 | AAGAAGCAAUAUUACGAGUU | -1.15 ± 0.079 | -0.169 ± 0.11
42 | GAGCAGCAAUAUUACGCCUG | -2.2 ± 0.19 | -2.32 ± 0.42
43 | GACUAGCAAUAUUACGCGGU | -3.62 ± 0.17 | -3.27 ± 0.28
44 | GGGCAGCAAUAUUACGUGAA | -0.864 ± 0.079 | -0.507 ± 0.083
45 | AUUAAGCAAUAUUACGAGCG | -0.827 ± 0.1 | -0.58 ± 0.13
46 | GUGUAGCAAUAUUACGUAAG | -1.56 ± 0.1 | -1.57 ± 0.16
47 | ACUAAGCAAUAUUACGGCUC | -0.0701 ± 0.093 | 0.329 ± 0.11
48 | UUGAAGCAAUAUUACGGAAA | -0.265 ± 0.1 | -0.0838 ± 0.14
49 | GCAUAGCAAUAUUACGUGUA | -2.43 ± 0.13 | -0.881 ± 0.084
